From patent US20250084167A1 (ZENAS BIOPHARMA, published 2025)

Target: T1, human CD19 (human, UniProt P15391 20-556)
T1 construct: CD19 on B cells of healthy subjects and patients (receptor occupancy in clinical studies); also called human B-cell restricted surface antigen CD19
T1 sequence: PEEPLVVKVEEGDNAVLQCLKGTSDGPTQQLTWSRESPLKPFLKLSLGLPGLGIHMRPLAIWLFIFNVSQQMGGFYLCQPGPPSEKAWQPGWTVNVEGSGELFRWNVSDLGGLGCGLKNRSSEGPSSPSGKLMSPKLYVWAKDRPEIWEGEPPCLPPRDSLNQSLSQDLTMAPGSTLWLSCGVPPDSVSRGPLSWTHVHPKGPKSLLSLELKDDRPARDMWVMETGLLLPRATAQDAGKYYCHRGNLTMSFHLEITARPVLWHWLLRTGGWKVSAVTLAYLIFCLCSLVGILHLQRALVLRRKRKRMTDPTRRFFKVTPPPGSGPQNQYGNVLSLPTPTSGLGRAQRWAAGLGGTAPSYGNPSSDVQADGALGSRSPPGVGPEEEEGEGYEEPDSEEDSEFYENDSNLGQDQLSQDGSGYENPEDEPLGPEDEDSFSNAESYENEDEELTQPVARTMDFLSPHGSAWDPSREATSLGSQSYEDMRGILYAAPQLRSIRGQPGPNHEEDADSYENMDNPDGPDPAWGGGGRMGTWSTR
Experiment: population PK/PD model of CD19 receptor occupancy (direct response, sigmoidal Emax) against plasma obexelimab concentration, fitted to data of 4 clinical studies (healthy subjects, RA and IgG4-RD patients); in vivo plasma concentration for half-maximal CD19 receptor occupancy, population PK/PD model fit

EC50: 0.0745 µg/mL
B1: Obexelimab (antibody, human IgG1, kappa, V domains shown)
VH: EVQLVESGGGLVKPGGSLKLSCAASGYTFTSYVMHWVRQAPGKGLEWIGYINPYNDGTKYNEKFQGRVTISSDKSISTAYMELSSLRSEDTAMYYCARGTYYYGTRVFDYWGQGTLVTVSS
VL: DIVMTQSPATLSLSPGERATLSCRSSKSLQNVNGNTYLYWFQQKPGQSPQLLIYRMSNLNSGVPDRFSGSGSGTEFTLTISSLEPEDFAVYYCMQHLEYPITFGAGTKLEIKR
notes: Humanized IgG1 kappa; also called XmAb5871; anti-CD19 antibody
